Test [1] has as its target C3b (human) (UniProt P01024). Kind of test: ELISA; competition: C3b coated on the plate (0.25 ug/well); FH 25 nM with a concentration series of FHRs, FH19-20 or FHR-1 1-2, no Sbi; 1 h 37°C, PBST-2% BSA; FH bound detected with OX-24.
Test [2] has as its target C3b (human) (UniProt P01024). The test can be described thus: ELISA; competition: C3b coated on the plate; FH 25 nM and WT Sbi-III-IV 1,000 nM with a concentration series of FHRs, FH19-20 or FHR-1 1-2; 1 h 37°C, PBST-2% BSA; FH bound detected with OX-24.

We go through one substance from article PMC6336717.

factor H-related protein 1 (FHR-1), recombinant, sequence (Q03591 19-330): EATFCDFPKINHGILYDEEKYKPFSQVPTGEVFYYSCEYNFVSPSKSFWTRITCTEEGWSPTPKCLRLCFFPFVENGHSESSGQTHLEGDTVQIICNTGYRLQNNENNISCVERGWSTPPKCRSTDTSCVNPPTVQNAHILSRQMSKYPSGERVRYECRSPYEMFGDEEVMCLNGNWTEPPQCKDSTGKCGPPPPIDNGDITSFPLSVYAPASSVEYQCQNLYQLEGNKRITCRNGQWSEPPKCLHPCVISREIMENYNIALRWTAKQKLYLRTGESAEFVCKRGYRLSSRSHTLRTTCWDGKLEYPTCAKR

In the test with C3b (human) [1], “factor H-related protein 1 (FHR-1), recombinant (from UniProt Q03591 19-330) (natural protein)” gave a percent residual FH bound to C3b at the highest FHR-1 concentration of 30% and a percent residual FH bound to C3b at the lowest FHR-1 concentration of 70%. Further, in the test with C3b (human) [2], the percent residual FH bound to C3b at the highest FHR-1 concentration, with Sbi-III-IV WT amounted to 0% and the percent residual FH bound to C3b at the lowest FHR-1 concentration, with Sbi-III-IV WT turned out to be 25%.
